According to patent publication US20260008817A1, “CYCLIC PEPTIDE OR SALT THEREOF, AND USES THEREOF” (FUJIFILM Corporation, priority 2023, published 2026):

Experiments:
[1] = molecular target: T1, FGFR4 Protein, Human, Recombinant (His Tag) (Homo sapiens, UniProt P22455); test: SPR FGFR versatility, FGFR4 on immobilized cyclic peptide; assay type: binding; conditions: 1 μmol/L FGFR, 25° C.
T1 construct: His tag; purchased Sino Biological 10538-H08H
T1 sequence (P22455 22-369 limits assumed): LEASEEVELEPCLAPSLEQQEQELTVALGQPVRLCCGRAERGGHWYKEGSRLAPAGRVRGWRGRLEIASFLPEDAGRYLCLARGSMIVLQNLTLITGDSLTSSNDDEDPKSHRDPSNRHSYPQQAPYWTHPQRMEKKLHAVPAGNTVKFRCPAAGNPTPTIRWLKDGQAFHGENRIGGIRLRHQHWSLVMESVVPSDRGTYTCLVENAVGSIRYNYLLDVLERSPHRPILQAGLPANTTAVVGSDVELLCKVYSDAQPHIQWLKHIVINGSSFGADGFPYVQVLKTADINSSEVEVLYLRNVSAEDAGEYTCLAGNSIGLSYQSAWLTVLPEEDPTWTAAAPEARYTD
Procedure: The binding of the cyclic peptide to various types of FGFRs was evaluated using a surface plasmon resonance (SPR) method.
The binding affinity of the chemically synthesized cyclic peptide to FGFR was evaluated by the following procedure.
A CM5 sensor chip (Cytiva, 29149603) was set in Biacore-T200 (manufactured by Cytiva) which is a surface plasmon resonance device, and an HBS-EP buffer (Cytiva, BR100826) was added as a running buffer at a flow rate of 10 μL/min to equilibrate the flow channel. Next, 70 μL of a mixed aqueous solution of 0.2 mol/L 1-(3-dimethylaminopropyl)-3-ethylcarbodiimide (EDC) and 0.05 mol/L N-hydroxysuccinimide (NHS) was added to activate the sensor chip. Then, a cyclic peptide prepared to 2 mg/mL in HBS-EP buffer was added thereto to perform immobilization at about 200 RU. […]
After various FGFRs (FGFR1 Protein, Human, Recombinant (His Tag) (Sino Biological, 10616-H08H), FGFR3 Protein, Human, Recombinant (ECD, His Tag) (Sino Biological, 16044-H08H), FGFR4 Protein, Human, Recombinant (His Tag) (Sino Biological, 10538-H08H)) diluted with HBS-EP to 1 μmol/L at 25° C. was added to each flow channel of the cyclic peptide-immobilized sensor chip prepared above, for 10 minutes, HBS-EP was allowed to flow as a running buffer for 30 minutes, and the binding of various FGFRs to the cyclic peptide was measured. […]

[2] = Reductive stability of cyclic peptide (DTT treatment, LC); assay type: physicochemical; conditions: residual rate after DTT treatment, room temperature, 1 hour
Procedure: The molecular stability of the cyclic peptide was evaluated by analyzing an aqueous solution of the cyclic peptide treated with a reducing agent by liquid chromatography (LC).
The reducing agent treatment was performed under the following conditions based on the concentration of glutathione contained in the cells. 25 μL of a 0.2 mg/mL cyclic peptide aqueous solution was prepared, 58.8 μL of a 12.6 mmol/L DTT aqueous solution was added to the aqueous solution, and the mixture was incubated at room temperature for 1 hour to obtain an aqueous solution of the cyclic peptide treated with a reducing agent. The DTT aqueous solution was used by diluting a 1 mol/L (+−)-dithiothreitol (DTT) solution (FUJIFILM Wako Pure Chemical Corporation, 044-33871) with water. The total area of all the peaks in LC/MS of the cyclic peptide before the reducing agent treatment was set to 100%, and the proportion of the total area of all the peaks in LC/MS of the aqueous solution of the cyclic peptide treated with the reducing agent was determined to calculate the residual rate of the cyclic peptide, and the molecular stability was evaluated according to the following evaluation criteria. The evaluation result preferably satisfies the evaluation criteria A, B, or C.
• A: The residual rate of cyclic peptide is 90% or more. • B: The residual rate of the cyclic peptide is 70% or more and less than 90% • C: The residual rate of the cyclic peptide is 50% or more and less than 70% • D: The residual rate of the cyclic peptide is less than 50%
The LC used for the evaluation of molecular stability was set to the following conditions. • LC device: Prominence series (pump, column oven, autosampler, detector) (manufactured by Shimadzu Corporation) • Detector: photodiode array detector (SPD-M20A), measurement wavelength of 280 nm • Column: TSKgel ODS-100V, inner diameter of 4.6 mm×length of 150 mm, particle diameter of 5 μm (manufactured by Tosoh Corporation) • Eluent A: solution containing 0.1% trifluoroacetic acid as solute, and solvent is 100% water • Eluent B: solution containing 0.1% trifluoroacetic acid as solute, and solvent is 100% acetonitrile • Flow rate: 1.0 mL/min • Injection amount: 25 μL • Gradient: 20% to 50%: Eluent B (0 to 15 minutes), 100%: Eluent B (15 minutes) • Column temperature: 40° C.

**Q.** With “335 (ACVWTFDRHAQEISQALHKVKKK; not fully specified; Description of Artificial Sequence: Cyclic peptide) [compound 335]” as the substance, how does the “Evaluation result of binding affinity to FGFR4” value [1] read?
**A.** A (The binding amount is 0.05 molecules of FGFR/one molecule of the cyclic peptide or more.)

**Q.** And the “Evaluation result of reductive stability” value [2]?
**A.** B (The residual rate of the cyclic peptide is 70% or more and less than 90%)
